Assay results reported in patent US20160115500A1 (University of California, published 2016).

T1: GST-ABI2 (UniProt O04719 1-423)
T1 sequence (looked up): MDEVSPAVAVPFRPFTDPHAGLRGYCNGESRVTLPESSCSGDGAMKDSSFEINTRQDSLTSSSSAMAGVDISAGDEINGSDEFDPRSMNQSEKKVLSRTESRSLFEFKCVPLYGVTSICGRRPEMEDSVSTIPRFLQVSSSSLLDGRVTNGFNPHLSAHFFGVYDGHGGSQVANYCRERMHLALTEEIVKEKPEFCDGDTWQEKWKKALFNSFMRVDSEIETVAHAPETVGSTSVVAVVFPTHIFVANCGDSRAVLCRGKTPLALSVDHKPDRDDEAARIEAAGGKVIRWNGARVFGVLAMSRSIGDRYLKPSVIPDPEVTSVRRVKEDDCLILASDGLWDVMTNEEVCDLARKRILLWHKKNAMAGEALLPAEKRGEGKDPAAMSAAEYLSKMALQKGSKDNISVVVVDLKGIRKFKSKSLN

T2: GST-HAB1 (UniProt Q9CAJ0 23-511)
T2 sequence (looked up): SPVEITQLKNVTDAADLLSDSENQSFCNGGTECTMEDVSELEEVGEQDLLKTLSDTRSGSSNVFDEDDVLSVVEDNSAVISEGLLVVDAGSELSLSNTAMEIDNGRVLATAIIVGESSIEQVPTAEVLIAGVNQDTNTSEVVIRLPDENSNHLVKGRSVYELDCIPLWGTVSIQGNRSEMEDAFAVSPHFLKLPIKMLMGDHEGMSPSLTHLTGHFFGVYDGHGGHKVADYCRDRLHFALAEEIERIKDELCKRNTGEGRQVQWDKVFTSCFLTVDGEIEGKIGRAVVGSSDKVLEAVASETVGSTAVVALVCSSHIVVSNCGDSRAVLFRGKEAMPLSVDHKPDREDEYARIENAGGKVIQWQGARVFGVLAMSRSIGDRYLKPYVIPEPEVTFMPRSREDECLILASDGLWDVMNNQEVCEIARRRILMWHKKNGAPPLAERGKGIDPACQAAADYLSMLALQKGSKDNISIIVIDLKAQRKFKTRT

T3: GST-ABI1 (UniProt P49597 1-434)
T3 sequence (looked up): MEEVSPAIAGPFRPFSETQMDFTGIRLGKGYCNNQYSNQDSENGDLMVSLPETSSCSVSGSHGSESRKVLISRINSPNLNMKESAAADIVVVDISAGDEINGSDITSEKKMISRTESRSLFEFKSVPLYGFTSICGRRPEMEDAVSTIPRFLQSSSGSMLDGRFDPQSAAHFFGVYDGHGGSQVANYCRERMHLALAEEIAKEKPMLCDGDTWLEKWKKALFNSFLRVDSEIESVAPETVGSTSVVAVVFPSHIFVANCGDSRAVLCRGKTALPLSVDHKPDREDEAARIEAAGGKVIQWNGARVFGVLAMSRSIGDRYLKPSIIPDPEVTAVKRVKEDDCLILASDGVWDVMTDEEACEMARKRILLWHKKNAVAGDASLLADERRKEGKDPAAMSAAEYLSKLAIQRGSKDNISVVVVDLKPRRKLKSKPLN

T4: 6×-His-PYR1^MANDI
T4 chain: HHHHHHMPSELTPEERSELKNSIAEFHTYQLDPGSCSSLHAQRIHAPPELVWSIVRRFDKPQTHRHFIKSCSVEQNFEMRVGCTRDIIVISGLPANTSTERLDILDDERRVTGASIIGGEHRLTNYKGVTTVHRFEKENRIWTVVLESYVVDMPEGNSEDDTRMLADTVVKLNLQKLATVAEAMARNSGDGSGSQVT

T5: 6×-His tagged PYR1^K59R,F108A,S122G
T5 chain: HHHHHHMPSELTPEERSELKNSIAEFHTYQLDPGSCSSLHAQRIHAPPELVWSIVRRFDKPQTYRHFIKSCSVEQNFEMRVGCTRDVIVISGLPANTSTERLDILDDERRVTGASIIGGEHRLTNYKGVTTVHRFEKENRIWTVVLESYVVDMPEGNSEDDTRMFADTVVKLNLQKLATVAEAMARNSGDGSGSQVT

B1: 6×-His-PYR1^MANDI (receptor)
chain: HHHHHHMPSELTPEERSELKNSIAEFHTYQLDPGSCSSLHAQRIHAPPELVWSIVRRFDKPQTHRHFIKSCSVEQNFEMRVGCTRDIIVISGLPANTSTERLDILDDERRVTGASIIGGEHRLTNYKGVTTVHRFEKENRIWTVVLESYVVDMPEGNSEDDTRMLADTVVKLNLQKLATVAEAMARNSGDGSGSQVT
B2: GST-ABI2 (protein)
chain: MDEVSPAVAVPFRPFTDPHAGLRGYCNGESRVTLPESSCSGDGAMKDSSFEINTRQDSLTSSSSAMAGVDISAGDEINGSDEFDPRSMNQSEKKVLSRTESRSLFEFKCVPLYGVTSICGRRPEMEDSVSTIPRFLQVSSSSLLDGRVTNGFNPHLSAHFFGVYDGHGGSQVANYCRERMHLALTEEIVKEKPEFCDGDTWQEKWKKALFNSFMRVDSEIETVAHAPETVGSTSVVAVVFPTHIFVANCGDSRAVLCRGKTPLALSVDHKPDRDDEAARIEAAGGKVIRWNGARVFGVLAMSRSIGDRYLKPSVIPDPEVTSVRRVKEDDCLILASDGLWDVMTNEEVCDLARKRILLWHKKNAMAGEALLPAEKRGEGKDPAAMSAAEYLSKMALQKGSKDNISVVVVDLKGIRKFKSKSLN
B3: GST-HAB1 (protein)
chain: SPVEITQLKNVTDAADLLSDSENQSFCNGGTECTMEDVSELEEVGEQDLLKTLSDTRSGSSNVFDEDDVLSVVEDNSAVISEGLLVVDAGSELSLSNTAMEIDNGRVLATAIIVGESSIEQVPTAEVLIAGVNQDTNTSEVVIRLPDENSNHLVKGRSVYELDCIPLWGTVSIQGNRSEMEDAFAVSPHFLKLPIKMLMGDHEGMSPSLTHLTGHFFGVYDGHGGHKVADYCRDRLHFALAEEIERIKDELCKRNTGEGRQVQWDKVFTSCFLTVDGEIEGKIGRAVVGSSDKVLEAVASETVGSTAVVALVCSSHIVVSNCGDSRAVLFRGKEAMPLSVDHKPDREDEYARIENAGGKVIQWQGARVFGVLAMSRSIGDRYLKPYVIPEPEVTFMPRSREDECLILASDGLWDVMNNQEVCEIARRRILMWHKKNGAPPLAERGKGIDPACQAAADYLSMLALQKGSKDNISIIVIDLKAQRKFKTRT

How the values were obtained:
[1] = molecular target: GAL4 activation domain fusion (ACT) to HAB1 (UniProt Q9CAJ0); assay: yeast two-hybrid, X-gal; lowest mandipropamid concentration giving signal
GST-ABI2 = molecular target: T1, GST-ABI2; assay: cell-based or functional assay
GST-HAB1 = molecular target: T2, GST-HAB1; assay: cell-based or functional assay
GST-ABI1 = molecular target: T3, GST-ABI1; assay: cell-based or functional assay
6×-His-PYR1^MANDI = molecular target: T4, 6×-His-PYR1^MANDI
[2] = molecular target: T5, 6×-His tagged PYR1^K59R,F108A,S122G

Molecule	PP2C activity (pNPP substrate), 600 nM PP2C and 1200 nM receptor (6×-His-PYR1^MANDI)	PP2C activity (pNPP substrate), 600 nM PP2C and 1200 nM receptor [2]	also measured
PYR1^Y58H,K59R,V81I,F108A,F159L (from UniProt P04386 1-147) (receptor)			Threshold [1]: 0.01 µM
B1			IC50 of mandipropamid mediated inhibition of PP2C activity (4-methylumbelliferyl-phosphate substrate) (GST-ABI2): 75.5 nM; IC50 of mandipropamid mediated inhibition of PP2C activity (4-methylumbelliferyl-phosphate substrate) (GST-HAB1): 32.2 nM; IC50 of mandipropamid mediated inhibition of PP2C activity (4-methylumbelliferyl-phosphate substrate) (GST-ABI1): 26.8 nM
B2	saturable inhibition of HAB1 and ABI2 PP2C activity by mandipropamid in the presence of PYR1^MANDI	saturable inhibition of HAB1 and ABI2 PP2C activity by mandipropamid in the presence of PYR1^MANDI (FIG. 1A, bottom lines) and PYR1^K59R,F108A,S122G	
B3	saturable inhibition of HAB1 and ABI2 PP2C activity by mandipropamid in the presence of PYR1^MANDI	saturable inhibition of HAB1 and ABI2 PP2C activity by mandipropamid in the presence of PYR1^MANDI (FIG. 1A, bottom lines) and PYR1^K59R,F108A,S122G	
